Our source for the normalised SPOT signal, Boehringer light units (BLU); mean over the file's lines of this peptide values is PMC314469, “Protein Interaction Networks by Proteome Peptide Scanning” (PLoS Biology, 2004).

The target of this experiment is Sho1 SH3 (SHO1_YEAST), P40073. Briefly: SPOT array.
Sequence of Sho1 SH3 (SHO1_YEAST), P40073 (P40073 295-366): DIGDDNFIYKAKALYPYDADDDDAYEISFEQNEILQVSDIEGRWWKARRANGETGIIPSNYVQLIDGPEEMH
In the case of AVDPENPKKLASKF [384-397 Hypothetical ORF], the normalised SPOT signal, Boehringer light units (BLU); mean over the file's lines of this peptide came to 83.2.
Molecule AKQPKEPKKRTTRR [7-20 11-kDa nonhistone chromosomal protein] returned a normalised SPOT signal, Boehringer light units (BLU); mean over the file's lines of this peptide of 103.
Next, YMQPIIPGKTESFE [151-164 similar to ubiquitin activating enzyme (E1)]: 165.
In the case of VVIPPVPSRYSDER [95-108 Product of gene unknown] it was 58; in that of ALVPFAPFKLLKDR [340-353 Triacetylfusarinine C transporter], 129.
In the case of WNLPWSPFKITTIM [95-108 Translation initiation factor eIF-2B epsilon subunit] it was 1240; in that of VTVPKLPFKLAVNK [181-194 integral membrane protein], 129; in that of YTLPLLPGKGGFRI [228-241 Hypothetical ORF], 509.
In turn, ARDPILPYRLVKDR [345-358 Product of gene unknown] yielded a normalised SPOT signal, Boehringer light units (BLU); mean over the file's lines of this peptide of 118.
Next, VHDPNIPLRPKEII [643-656 Ubiquitin-protein ligase]: 128.
In the case of VFSPTNPLRIKIAR [326-339 putative calcium channel] it was 102; in that of ASLPVGPRKNGMNV [26-39 Hypothetical ORF], 215.
Next, ATTPAIPTKSDEAE: 169.
Molecule AGSPIRPYKQRYLL [526-539 heat shock transcription factor] displayed a normalised SPOT signal, Boehringer light units (BLU); mean over the file's lines of this peptide of 86.2.
Next, YPSPAQPPKSPLLN [448-461 " involved in bud formation, has SH3 domain"]: 128; YKIPVVPPRETYFA [507-520 involved in cell wall biogenesis]: 195.
In the case of VHGPGIPMKSLEVA [381-394 MAL-activator protein] it was 198; in that of ATRPSSPMRHKSIS [585-598 protein kinase domain], 401; in that of YILPKNPFRVPSEM [125-138 Hypothetical ORF], 290.
With VSIPFDPSKDTFDH [741-754 P-type ATPase], the normalised SPOT signal, Boehringer light units (BLU); mean over the file's lines of this peptide is 94.6.
Next, VHGPGVPVKTLEIA [386-399 MAL-activator protein]: 88; AFVPTNPWRSSMSL [315-328 invertase (sucrose hydrolyzing enzyme)]: 620; VVSPSHPFKQLQKI [146-159 (putative) involved in cell wall biogenesis]: 150.
For AMPPTLPHRDWKDY [84-97 component of peroxisomal import machinery], the normalised SPOT signal, Boehringer light units (BLU); mean over the file's lines of this peptide was 321.
In the case of WSYPYEPLRVLQVG [17-30 Hypothetical ORF] it was 898.
Next, AKSPLLPFKLLSDR [330-343 Hypothetical ORF]: 160.
In the case of VPPPNVPKKDKREV [659-672 Ubiquitin-specific protease] it was 11300; in that of YQYPQTPSKVDISI [243-256 Product of gene unknown], 196.
In turn, VLEPSKPYKKNPFM [663-676 Hypothetical ORF] registered a normalised SPOT signal, Boehringer light units (BLU); mean over the file's lines of this peptide of 121.
Next, SQRPGSPGRYKLVR [174-187 gamma subunit of translational initiation factor eIF-2]: 178.
Regarding VSTPPVPKKFQEIF [9-22 cox1 pre-mRNA splicing factor], the normalised SPOT signal, Boehringer light units (BLU); mean over the file's lines of this peptide worked out at 235.
In the case of VETPPKPIKKDVRF [535-548 " cytoskeletal protein, similar to arrestins"] it was 8540; in that of VTLPISPSRASISF [70-83 Hypothetical ORF], 120; in that of ATVPSAPYRKQIIS [11-24 nuclear pore protein], 122.
For the molecule WKPPDLPIRLRKRP [502-515 Ubiquitin-specific protease], the normalised SPOT signal, Boehringer light units (BLU); mean over the file's lines of this peptide is 3660.
In the case of APAPLDPFKTGGNN [849-862 " contains 3 SH3 domains, interacts with Bee1p"] it was 681.
VKHPMKPFRLMLTD [43-56 (putative) histone deacetylase]: the normalised SPOT signal, Boehringer light units (BLU); mean over the file's lines of this peptide worked out at 691.
As for AIEPGVPSRYSDET [91-104 Hypothetical ORF], the normalised SPOT signal, Boehringer light units (BLU); mean over the file's lines of this peptide is 125.
Next, APTPPAPSRSEKLH [727-740 Hypothetical ORF]: 258; VSDPYVPTRNTFNY [142-155 ubiquitin-mediated 26S proteasome subunit]: 392.
Next, VQQPEDPLRVLGEY [143-156 Hypothetical ORF]: 128; AAWPLDPARERWTR [269-282 Hypothetical ORF]: 137.
For AAQPPLPSRNVASG [446-459 Actin binding protein], the normalised SPOT signal, Boehringer light units (BLU); mean over the file's lines of this peptide stood at 81.6.
For SILPAFPSKSSNEQ, the normalised SPOT signal, Boehringer light units (BLU); mean over the file's lines of this peptide came to 73.6.
In the case of VFLPTAPSKHMDFA [478-491 TATA binding protein-associated factor (TAF)], the normalised SPOT signal, Boehringer light units (BLU); mean over the file's lines of this peptide is 342.
As for SGFPLLPSKRGVTA [165-178 Hypothetical ORF], the normalised SPOT signal, Boehringer light units (BLU); mean over the file's lines of this peptide was 644.
Next, YSNPQTPLRSLAGL [1404-1417 Type 1 membrane protein with EF hand motif]: 217.
Next, VENPFLPAKEERTG [910-923 159-kDa nucleoporin with coiled-coil domain and repeated motifs typical of nucleoporins]: 157; YGPPTDPRKQKQAK [36-49 neutral trehalase]: 198; VIRPGVPTKFTKKQ [1275-1288 Glutamate synthase (NADPH)]: 513.
Next, ALKPKTPSKAPRKR [65-78 origin recognition complex subunit 2]: 830.
For the molecule VKRPLSPTRINGKS, the normalised SPOT signal, Boehringer light units (BLU); mean over the file's lines of this peptide worked out at 160.
In the case of VTLPTGPAKIIWEK [510-523 cytochrome P450 lanosterol 14a-demethylase] it was 136; in that of YSLPMHPGRWWVHT [222-235 " 2,3-oxidosqualene-lanosterol cyclase"], 453; in that of APLPPQPRKHDKTP [587-600 Protein Kinase C], 152.
